# Assay results: US20140274782A1, “AFFINITY REAGENTS AND METHODS FOR DETECTION, PURIFICATION, AND PROTEOMIC ANALYSIS OF METHYLATED PROTEINS” (The Board of Trustees of the Leland Stanford Junior …, priority 2013, published 2014)
# T1: G9a and GLP (Homo sapiens, UniProt Q96KQ7+Q9H9B1)
# T1 sequence (Q96KQ7 2-1210 limits assumed): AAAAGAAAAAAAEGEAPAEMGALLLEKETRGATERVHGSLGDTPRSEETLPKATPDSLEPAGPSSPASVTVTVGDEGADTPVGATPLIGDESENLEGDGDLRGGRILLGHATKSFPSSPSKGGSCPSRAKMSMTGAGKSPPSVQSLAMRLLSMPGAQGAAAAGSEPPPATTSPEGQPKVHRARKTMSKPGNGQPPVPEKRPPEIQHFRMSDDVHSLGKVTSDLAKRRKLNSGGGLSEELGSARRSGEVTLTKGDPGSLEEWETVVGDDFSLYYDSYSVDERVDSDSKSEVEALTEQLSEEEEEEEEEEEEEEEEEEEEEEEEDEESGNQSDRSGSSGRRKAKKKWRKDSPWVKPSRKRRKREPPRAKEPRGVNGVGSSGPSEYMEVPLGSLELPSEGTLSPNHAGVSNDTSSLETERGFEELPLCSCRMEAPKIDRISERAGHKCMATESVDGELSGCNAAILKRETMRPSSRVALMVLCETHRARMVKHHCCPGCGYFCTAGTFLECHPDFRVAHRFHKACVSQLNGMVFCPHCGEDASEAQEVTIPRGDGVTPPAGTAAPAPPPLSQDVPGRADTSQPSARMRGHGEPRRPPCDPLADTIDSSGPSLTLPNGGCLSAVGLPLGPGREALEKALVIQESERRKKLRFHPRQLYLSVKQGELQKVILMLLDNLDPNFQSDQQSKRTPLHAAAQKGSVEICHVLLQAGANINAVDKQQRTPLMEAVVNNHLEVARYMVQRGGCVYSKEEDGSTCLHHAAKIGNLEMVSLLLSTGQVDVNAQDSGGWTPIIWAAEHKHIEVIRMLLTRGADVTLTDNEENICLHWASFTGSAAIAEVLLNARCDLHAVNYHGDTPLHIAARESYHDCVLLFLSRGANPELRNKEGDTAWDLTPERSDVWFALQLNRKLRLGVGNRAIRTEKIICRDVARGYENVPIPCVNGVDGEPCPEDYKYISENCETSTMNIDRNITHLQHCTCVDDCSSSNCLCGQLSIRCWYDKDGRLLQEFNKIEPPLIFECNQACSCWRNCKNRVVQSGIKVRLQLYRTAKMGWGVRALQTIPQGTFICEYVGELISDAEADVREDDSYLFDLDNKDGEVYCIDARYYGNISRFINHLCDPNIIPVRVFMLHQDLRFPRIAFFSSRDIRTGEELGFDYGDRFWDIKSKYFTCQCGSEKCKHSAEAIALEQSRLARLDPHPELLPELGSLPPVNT
# T1 sequence (Q9H9B1 2-1298 limits assumed): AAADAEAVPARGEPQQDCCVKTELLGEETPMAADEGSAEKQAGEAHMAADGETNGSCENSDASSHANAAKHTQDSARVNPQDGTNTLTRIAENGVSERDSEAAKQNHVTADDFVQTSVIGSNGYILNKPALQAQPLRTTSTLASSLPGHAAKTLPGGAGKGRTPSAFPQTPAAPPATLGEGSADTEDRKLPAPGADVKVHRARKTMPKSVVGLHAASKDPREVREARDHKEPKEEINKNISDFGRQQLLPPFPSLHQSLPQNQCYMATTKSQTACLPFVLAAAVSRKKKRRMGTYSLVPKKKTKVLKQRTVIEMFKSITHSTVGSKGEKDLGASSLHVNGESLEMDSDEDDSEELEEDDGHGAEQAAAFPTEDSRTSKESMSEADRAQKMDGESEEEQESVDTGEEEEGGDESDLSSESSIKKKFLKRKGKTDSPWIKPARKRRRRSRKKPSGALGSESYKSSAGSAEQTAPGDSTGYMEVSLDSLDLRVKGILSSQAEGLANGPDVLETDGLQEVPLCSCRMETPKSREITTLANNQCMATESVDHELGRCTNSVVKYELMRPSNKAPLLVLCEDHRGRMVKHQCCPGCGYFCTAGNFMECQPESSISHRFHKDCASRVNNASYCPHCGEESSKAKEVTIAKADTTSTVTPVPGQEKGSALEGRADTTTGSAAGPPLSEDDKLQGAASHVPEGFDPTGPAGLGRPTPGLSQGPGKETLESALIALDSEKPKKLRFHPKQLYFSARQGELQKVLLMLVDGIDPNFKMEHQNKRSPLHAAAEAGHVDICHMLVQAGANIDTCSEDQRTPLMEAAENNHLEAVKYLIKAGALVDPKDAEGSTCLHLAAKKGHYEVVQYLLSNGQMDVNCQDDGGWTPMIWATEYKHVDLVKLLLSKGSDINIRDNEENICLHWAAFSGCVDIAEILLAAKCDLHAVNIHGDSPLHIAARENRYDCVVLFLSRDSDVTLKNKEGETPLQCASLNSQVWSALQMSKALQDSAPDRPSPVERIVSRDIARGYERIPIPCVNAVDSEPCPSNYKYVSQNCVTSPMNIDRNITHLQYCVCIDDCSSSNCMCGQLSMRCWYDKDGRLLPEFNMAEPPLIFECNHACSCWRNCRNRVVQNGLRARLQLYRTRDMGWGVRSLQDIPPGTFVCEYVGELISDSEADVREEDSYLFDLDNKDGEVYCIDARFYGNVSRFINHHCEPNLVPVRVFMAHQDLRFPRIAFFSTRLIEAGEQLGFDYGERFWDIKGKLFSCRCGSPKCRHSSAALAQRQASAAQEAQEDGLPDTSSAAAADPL
# B1: NCBP1 (protein, UniProt Q09161 1-790, looked up)
# Nuclear cap-binding protein …: MSRRRHSDENDGGQPHKRRKTSDANETEDHLESLICKVGEKSACSLESNLEGLAGVLEADLPNYKSKILRLLCTVARLLPEKLTIYTTLVGLLNARNYNFGGEFVEAMIRQLKESLKANNYNEAVYLVRFLSDLVNCHVIAAPSMVAMFENFVSVTQEEDVPQVRRDWYVYAFLSSLPWVGKELYEKKDAEMDRIFANTESYLKRRQKTHVPMLQVWTADKPHPQEEYLDCLWAQIQKLKKDRWQERHILRPYLAFDSILCEALQHNLPPFTPPPHTEDSVYPMPRVIFRMFDYTDDPEGPVMPGSHSVERFVIEENLHCIIKSHWKERKTCAAQLVSYPGKNKIPLNYHIVEVIFAELFQLPAPPHIDVMYTTLLIELCKLQPGSLPQVLAQATEMLYMRLDTMNTTCVDRFINWFSHHLSNFQFRWSWEDWSDCLSQDPESPKPKFVREVLEKCMRLSYHQRILDIVPPTFSALCPANPTCIYKYGDESSNSLPGHSVALCLAVAFKSKATNDEIFSILKDVPNPNQDDDDDEGFSFNPLKIEVFVQTLLHLAAKSFSHSFSALAKFHEVFKTLAESDEGKLHVLRVMFEVWRNHPQMIAVLVDKMIRTQIVDCAAVANWIFSSELSRDFTRLFVWEILHSTIRKMNKHVLKIQKELEEAKEKLARQHKRRSDDDDRSSDRKDGVLEEQIERLQEKVESAQSEQKNLFLVIFQRFIMILTEHLVRCETDGTSVLTPWYKNCIERLQQIFLQHHQIIQQYMVTLENLLFTAELDPHILAVFQQFCALQA
# B2: YTHDC2 (protein, UniProt Q9H6S0 1-1430, looked up)
# 3'-5' RNA helicase YTHDC2: MSRPSSVSPRQPAPGGGGGGGPSPCGPGGGGRAKGLKDIRIDEEVKIAVNIALERFRYGDQREMEFPSSLTSTERAFIHRLSQSLGLVSKSKGKGANRYLTVKKKDGSETAHAMMTCNLTHNTKHAVRSLIQRFPVTNKERTELLPKTERGNVFAVEAENREMSKTSGRLNNGIPQIPVKRGESEFDSFRQSLPVFEKQEEIVKIIKENKVVLIVGETGSGKTTQIPQFLLDDCFKNGIPCRIFCTQPRRLAAIAVAERVAAERRERIGQTIGYQIRLESRVSPKTLLTFCTNGVLLRTLMAGDSTLSTVTHVIVDEVHERDRFSDFLLTKLRDLLQKHPTLKLILSSAALDVNLFIRYFGSCPVIYIQGRPFEVKEMFLEDILRTTGYTNKEMLKYKKEKQQEEKQQTTLTEWYSAQENSFKPESQRQRTVLNVTDEYDLLDDGGDAVFSQLTEKDVNCLEPWLIKEMDACLSDIWLHKDIDAFAQVFHLILTENVSVDYRHSETSATALMVAAGRGFASQVEQLISMGANVHSKASNGWMALDWAKHFGQTEIVDLLESYSATLEFGNLDESSLVQTNGSDLSAEDRELLKAYHHSFDDEKVDLDLIMHLLYNICHSCDAGAVLIFLPGYDEIVGLRDRILFDDKRFADSTHRYQVFMLHSNMQTSDQKKVLKNPPAGVRKIILSTNIAETSITVNDVVFVIDSGKVKEKSFDALNFVTMLKMVWISKASAIQRKGRAGRCRPGICFRLFSRLRFQNMLEFQTPELLRMPLQELCLHTKLLAPVNCPIADFLMKAPEPPPALIVRNAVQMLKTIDAMDTWEDLTELGYHLADLPVEPHLGKMVLCAVVLKCLDPILTIACTLAYRDPFVLPTQASQKRAAMLCRKRFTAGAFSDHMALLRAFQAWQKARSDGWERAFCEKNFLSQATMEIIIGMRTQLLGQLRASGFVRARGGGDIRDVNTNSENWAVVKAALVAGMYPNLVHVDRENLVLTGPKEKKVRFHPASVLSQPQYKKIPPANGQAAAIKALPTDWLIYDEMTRAHRIANIRCCSAVTPVTILVFCGPARLASNALQEPSSFRVDGIPNDSSDSEMEDKTTANLAALKLDEWLHFTLEPEAASLLLQLRQKWHSLFLRRMRAPSKPWSQVDEATIRAIIAVLSTEEQSAGLQQPSGIGQRPRPMSSEELPLASSWRSNNSRKSSADTEFSDECTTAERVLMKSPSPALHPPQKYKDRGILHPKRGTEDRSDQSSLKSTDSSSYPSPCASPSPPSSGKGSKSPSPRPNMPVRYFIMKSSNLRNLEISQQKGIWSTTPSNERKLNRAFWESSIVYLVFSVQGSGHFQGFSRMSSEIGREKSQDWGSAGLGGVFKVEWIRKESLPFQFAHHLLNPWNDNKKVQISRDGQELEPLVGEQLLQLWERLPLGEKNTTD
# B3: SMARCA1 (protein, UniProt P28370 1-1042, looked up)
# SWI/SNF-related …: MEQDTAAVAATVAAADATATIVVIEDEQPGPSTSQEEGAAAAATEATAATEKGEKKKEKNVSSFQLKLAAKAPKSEKEMDPEYEEKMKADRAKRFEFLLKQTELFAHFIQPSAQKSPTSPLNMKLGRPRIKKDEKQSLISAGDYRHRRTEQEEDEELLSESRKTSNVCIRFEVSPSYVKGGPLRDYQIRGLNWLISLYENGVNGILADEMGLGKTLQTIALLGYLKHYRNIPGPHMVLVPKSTLHNWMNEFKRWVPSLRVICFVGDKDARAAFIRDEMMPGEWDVCVTSYEMVIKEKSVFKKFHWRYLVIDEAHRIKNEKSKLSEIVREFKSTNRLLLTGTPLQNNLHELWALLNFLLPDVFNSADDFDSWFDTKNCLGDQKLVERLHAVLKPFLLRRIKTDVEKSLPPKKEIKIYLGLSKMQREWYTKILMKDIDVLNSSGKMDKMRLLNILMQLRKCCNHPYLFDGAEPGPPYTTDEHIVSNSGKMVVLDKLLAKLKEQGSRVLIFSQMTRLLDILEDYCMWRGYEYCRLDGQTPHEEREEAIEAFNAPNSSKFIFMLSTRAGGLGINLASADVVILYDSDWNPQVDLQAMDRAHRIGQKKPVRVFRLITDNTVEERIVERAEIKLRLDSIVIQQGRLIDQQSNKLAKEEMLQMIRHGATHVFASKESELTDEDITTILERGEKKTAEMNERLQKMGESSLRNFRMDIEQSLYKFEGEDYREKQKLGMVEWIEPPKRERKANYAVDAYFREALRVSEPKIPKAPRPPKQPNVQDFQFFPPRLFELLEKEILYYRKTIGYKVPRNPDIPNPALAQREEQKKIDGAEPLTPEETEEKEKLLTQGFTNWTKRDFNQFIKANEKYGRDDIDNIAREVEGKSPEEVMEYSAVFWERCNELQDIEKIMAQIERGEARIQRRISIKKALDAKIARYKAPFHQLRIQYGTSKGKNYTEEEDRFLICMLHKMGFDRENVYEELRQCVRNAPQFRFDWFIKSRTAMEFQRRCNTLISLIEKENMEIEERERAEKKKRATKTPMVKFSAFS
# Target: T1, G9a and GLP
# Assay: Triple SILAC pull-down after UNC0638 treatment of 293T cells, DMSO/UNC0638 ratio of protein captured by 3×MBT;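 note: mass spectrometry (Q-Exactive) SILAC quantitation, DMSO/UNC0638 ratio computed after subtracting 3×MBTD355N mutant pull-down background, only proteins with at least twofold 3×MBT over mutant signal considered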
# Type: cell-based
# Parameters: endogenous in cells; host or cells: HEK 293T
# Conditions: SILAC ratio DMSO relative to UNC0638, pull-down with 3xMBT; UNC0638 in heavy SILAC media; all values in log base 2
row,Relative to UNC0638 UNC Heavy [log base 2],Molecule
1,−0.32,B1
2,−0.10,B2
3,−0.35,B3

# Same assay, conditions: SILAC ratio DMSO relative to UNC0638, pull-down with 3xMBT; UNC0638 in light SILAC media; all values in log base 2
row,Relative to UNC0638 UNC Light [log base 2],Molecule
1,0.11,B1
2,−0.07,B2
3,0.18,B3

# Same assay, conditions: average of UNC Light and UNC Heavy experiments; all values in log base 2
row,Relative to UNC0638 Average [log base 2],Molecule
1,−0.11,B1
2,−0.08,B2
3,−0.09,B3

# System: 3×MBT domain of L3MBTL1
# Assay: Triple SILAC pull-down, 3xMBT/3xMBTD355N ratio (cytoplasmic, nuclear and chromatin fractions of 293T cells);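 note: proteins quantified with MaxQuant, requiring at least two unique peptides and quantification in both label directions, normalized to the mean of proteins from a digested loading control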
# Type: binding, human
# Conditions: SILAC ratio 3xMBT vs 3xMBTD355N pull-down, 293T cells; experiment with UNC0638 in heavy SILAC media; all values in log base 2
row,Molecule,3xMBT/D355N UNC Heavy [log base 2]
1,B1,1.27
2,B2,1.74
3,B3,0.79

# Same assay, conditions: SILAC ratio 3xMBT vs 3xMBTD355N pull-down, 293T cells; experiment with UNC0638 in light SILAC media; all values in log base 2
row,Molecule,3xMBT/D355N UNC Light [log base 2]
1,B1,2.23
2,B2,2.87
3,B3,3.03
